From paper PMC11623273, “Epitope-focused immunogens targeting the hepatitis C virus glycoproteins induce broadly neutralizing antibodies” (Science Advances, 2024)

Key:
[1] = molecular target: T1, E1_S1 (design 1W4K_08), epitope scaffold presenting the HCV E1 epitope (residues 314-324) (designed scaffold from Pyrobaculum …)
T1 chain: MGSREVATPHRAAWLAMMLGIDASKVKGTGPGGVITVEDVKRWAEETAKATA

[2] = molecular target: T2, E2_S2_1 (design 2K6Z_01), epitope scaffold presenting HCV E2 epitope I; conditions: both partners purified
T2 chain: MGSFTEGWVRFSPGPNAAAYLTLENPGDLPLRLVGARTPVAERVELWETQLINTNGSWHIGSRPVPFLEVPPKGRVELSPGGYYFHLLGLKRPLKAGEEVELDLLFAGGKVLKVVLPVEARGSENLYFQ

[3] = molecular target: E2_S3_3 (design 4CIL_03), epitope scaffold presenting HCV E2 epitope I; conditions: both partners purified
[4] = molecular target: T1, E1_S1 (design 1W4K_08), epitope …; test: grating-coupled interferometry (GCI, Creoptix WAVE); conditions: both partners purified

B1: N15 (antibody, V domains shown)
VH: QVQLVESGGGVVQPGRSLRLSCAASGFTFSSYVMHWVRQAPGKGLEWVAVISYDGSNKYYADSVKGRFTISRDNSKNTLYLQMNSLRAEDTAVYYCARAPLYDILSDYWGQGTLVTVSS
VL: QLVLTQSPSASASLGASVKLTCTLSSGHSSYAIAWHQQQPEKGPRYLMKLNSDGSHSKGDGIPDRFSGSSSGAERYLTISSLQSEDEADYYCQTWGTGIVVFGGGTKLTVL
[1]
  binding result: binds

B2: Fab fragment of neutralizing antibody HCV1 (Fab, V domains shown)
VH: EVQLLESGGGVVQPGRSLRLSCTASGFTFNNYGMHWVRQTPGKGLEWLAVIWFDENNKYYADSVRGRFTISRDNSKNTLFLQMNSLKTEDTAMYYCARDISLVRDAFIYFDFWGLGTLVTVSS
VL: ELTLTQSPATLSLSPGERATLSCRASQSVSSYLAWYQQKPGQAPRLLIYDASNRATGIPARFSGSGSGTDFTLTISSLEPEDFAVYYCQQRSNWITFGQGTRLEIK
notes: also called Fab HCV1; F(ab) HCV1
[2]
  Kd: 23 nM
  koff: 0.00121 s⁻¹
  kon: 52700 M⁻¹ s⁻¹
[3]
  Kd: 2.8 nM
  koff: 0.000369 s⁻¹
  kon: 133000 M⁻¹ s⁻¹

B3: Fab fragment of neutralizing antibody IGH526 (Fab, V domains shown)
VH: VQLLEQSGAEVKRPGASVKVSCKASGYTFTSYAIHWVRQAPGQRLEWMGWINPGNGNAKYSQRFQGRVIISRDTSATTSYMELSSLTSEDTAVYSCARDRGFDLLTGHYLGLDPWGQGTLVTVSS
VL: ELTLTQPASASATPGQRVTISCSGSSSNIGGNTVNWYQHLPGAAPKLLIHNNDLRPSGVPDRFSGSKSGTSASLAVSGLQSEDEADYFCAAWDDGLNGWVFGGGTKLTVL
[4]
  Kd: 1.4 nM
  koff: 0.00181 s⁻¹
  kon: 1.32e+06 M⁻¹ s⁻¹
